Paper PMC2120109 (The Journal of Cell Biology, 1994)
Substitutions are numbered along the chain they refer to. Numbers in names are those of the source.

B1: NSF K266A mutant with His6 at the amino terminus and a myc epitope at the carboxy terminus (natural protein, UniProt P18708 1-744, looked up)
chain: MAGRSMQAARCPTDELSLSNCAVVSEKDYQSGQHVIVRTSPNHKYIFTLRTHPSVVPGSVAFSLPQRKWAGLSIGQEIEVALYSFDKAKQCIGTMTIEIDFLQKKNIDSNPYDTDKMAAEFIQQFNNQAFSVGQQLVFSFNDKLFGLLVKDIEAMDPSILKGEPASGKRQKIEVGLVVGNSQVAFEKAENSSLNLIGKAKTKENRQSIINPDWNFEKMGIGGLDKEFSDIFRRAFASRVFPPEIVEQMGCKHVKGILLYGPPGCGATLLARQIGKMLNAREPKVVNGPEILNKYVGESEANIRKLFADAEEEQRRLGANSGLHIIIFDEIDAICKQRGSMAGSTGVHDTVVNQLLSKIDGVEQLNNILVIGMTNRPDLIDEALLRPGRLEVKMEIGLPDEKGRLQILHIHTARMRGHQLLSADVDIKELAVETKNFSGAELEGLVRAAQSTAMNRHIKASTKVEVDMEKAESLQVTRGDFLASLENDIKPAFGTNQEDYASYIMNGIIKWGDPVTRVLDDGELLVQQTKNSDRTPLVSVLLEGPPHSGKTALAAKIAEESNFPFIKICSPDKMIGFSETAKCQAMKKIFDDAYKSQLSCVVVDDIERLLDYVPIGPRFSNLVLQALLVLLKKAPPQGRKLLIIGTTSRKDVLQEMEMLNAFSTTIHVPNIATGEQLLEALELLGNFKDKERTTIAQQVKGKKVWIGIKKLLMLIEMSLQMDPEYRVRKFLALLREEGASPLDFD
B2: NSF E329Q mutant (natural protein, UniProt P18708 1-744, looked up)
chain: B1 chain with A266K, E329Q
B3: NSF K549A mutant (natural protein, UniProt P18708 1-744, looked up)
chain: B1 chain with A266K, K549A
B4: NSF D604Q mutant (natural protein, UniProt P18708 1-744, looked up)
chain: B1 chain with A266K, D604Q
B5: NSF double hydrolysis mutant E329/D604Q (natural protein, UniProt P18708 1-744, looked up)
chain: B1 chain with A266K, E329Q, D604Q

Biological target: the molecule itself
Assay: SEC

Binding result, binds:
B1
B2
B3
B4
B5
